Results taken from patent US9725518B2, “Antibodies that bind to Jagged 1” (Cancer Research Technology Limited, priority 2013, dated 2017).
Numbering of substitutions follows the chain as printed.

Columns and labels:
[1] = tested on: J1-induced Notch signalling; assay: Luciferase assay, LS174T RBPJ reporter stimulated with J1 protein; type: cell-based, human; conditions: humanised/chimeric mAbs 10 μg/ml, NE3-Fc; DBZ control
Description: FIG. 9. […] (A) The colorectal cancer cell line LS174T expressing luciferase under the control of Notch co-factor RBPJ was stimulated with mammalian cell-expressed soluble J1 proteins (NE3-Fc and NE12-Fc) or a control protein in the presence of J1 mAbs (10 μg/ml), and luciferase activity was measured. […] (C) Breast cancer MDA-MB-231 cells were cultured with J1 mAbs. The expression level of the Notch target gene HES1 was measured by qPCR using β2m as the control gene. In all experiments the γ-secretase inhibitor DBZ was used as a positive control for pan Notch inhibition and a control mAb (IgG2b or IgG1) or no treatment (NT) were negative controls.
FIG. 20. Inhibition of human Jagged 1/Notch signalling by humanised and de-immunised J1-mAbs in vitro. The colorectal cancer cell line LS174T expressing luciferase under the control of Notch co-factor RbPJ was stimulated with mammalian cell-expressed recombinant J1 protein (NE3-Fc protein, right bar for each treatment) or a control protein (left bar) in the presence of J1 mAbs (10 μg/ml), and luciferase activity was measured. The parental murine monoclonal antibody (Mo), Murine IgG1, DMSO and DBZ were used as controls.
Having established that the J1 mAbs were able to block the binding of the J1 ligand to its receptor N1 their effect on the activity of the Notch signalling pathway was investigated. The human colorectal cancer cell line LS174T, stably expressing a luciferase reporter gene under control of Notch co-factor RBPJ, was stimulated with two forms of immobilised J1 protein: N-terminus to EGF3 and N-terminus to EGF12. […] Importantly, the best two J1 mAbs (J1-65D and J1-183D) were also tested against other Notch ligands in order to verify ligand specificity.
Prior to experiment, clear bottom 96-well plates (CELLSTAR) wells were coated with either J1-ECD fragments (NE3-Fc and NE12-Fc), other Notch-ligands (J2 or DLL4; both from R&D) or control protein (mlgG2b) at the concentration of 5 μg/ml in 0.1% BSA-PBS (overnight incubation at 4° C.). LS174T colorectal cancer cells, expressing the luciferase gene under control of the Notch cofactor RbPJ, were then plated (4×10^4 cells/well) in the presence of different mAbs (10 μg/ml) or DBZ (100 nM). Luciferase activity was then quantified 24 hours later using the Bright-Glo Luciferase Assay System (Promega).

[2] = molecular target: T1, N1 binding to cell surface expressed hJ1 (Homo sapiens, UniProt P78504); assay: Notch binding blocking assay (FACS): N1 EGF11-13 beads staining human J1-expressing cells; parameters: key: +: Complete blocking; X: No blocking
T1 construct: cell expressed full length human J1 (hJ1; HEK293 transfectants); expressed in transfected cells; host or cells: HEK293
Description: To functionally identify mAbs with the capacity to disrupt the J1-N1 protein:protein interaction, hybridoma culture supernatants were tested in a FACS-based binding assay. Biotinylated soluble human N1 EGF11-13 recombinant protein was bound to avidin-coated beads and used to stain J1-expressing cells in the presence or absence of each mAb that recognised cell surface hJ1 by FACS. […] The four blocking antibodies of the invention were also able to block the binding of recombinant […] to a biotin-tagged J1 DSL-EGF3 recombinant protein in an ELISA assay (FIG. 1B). […] The four blocking mAbs of the invention were purified from serum-free culture supernatants and equal concentrations of purified antibodies were used to compare their activity in subsequent assays (unless hybridoma supernatant was specified). Sequence conservation across the DSL domain raised the possibility that the J1 mAbs may also be able to bind the Jagged 2 (J2) protein. Antibody binding specificity was initially tested by immunocytochemical labelling of cytospin samples of hJ1 and hJ2 transfectants (FIG. 2). All antibodies stained J1 transfectants but none stained the J2 transfected cells, and J2 expression in the same experiment was confirmed using a commercial anti-J2 antibody. The specificity of the purified mAbs was further investigated in mammalian cells transfected with hJ2, human Delta-like ligand 4 (hDLL4), or mJ1 (FIG. 3). Transfectants were FACS stained with 10 μg/ml of each of the four blocking mAbs.
To test the blocking efficiencies of the J1 mAbs, purified mAbs were titrated to determine the concentration required to block recombinant N1 binding to cell surface expressed hJ1. Beads coated with a bacterially-expressed N1 EGF11-13 protein were used to stain the hJ1-expressing cells in the presence of various concentrations of mAbs.
The FACS-based binding assay using biotinylated soluble human N1 EGF11-13 recombinant protein bound to avidin-coated fluorescent beads to stain J1-expressing cells was performed using a dilution series of each variant mAb to test their ability to block J1 binding to N1 by FACS (Table 7). […] Thus 12/16 J1-65D1 variants V1-12 and all J1-183D variants have the desired binding and blocking activity.
Human N1 EGF11-13 (411-526) was expressed in E. coli, refolded in vitro and labelled with purple fluorescent avidin-coated beads (Spherotech) as previously described. HEK293 cells transfected with human J1 or B16F10 cells transfected with mouse J1 were stained with N1 fluorescent beads in the presence of J1 antibody supernatants or purified antibody (murine, chimeric or humanised) diluted in HBBS/10% FCS. Cells were washed and re-suspended in staining buffer before being analysed with a FACSCalibur and data analysis with CellQuest. HEK293 cells transfected with human Jagged 2 and B16F10 cells transfected with human and mouse DLL4 were stained similarly to test blocking specificity.

[3] = Soluble aggregates of transiently expressed antibodies; type: physicochemical; conditions: Protein A purified antibody
Excerpt: The protein yield of these antibodies, their levels of soluble aggregates and their binding affinity to the immunogen (J1-DE3) are illustrated in (Table 6).

MDA-MB-231 spheroids = assay: Spheroid assay (3-D growth), MDA-MB-231; type: cell-based, human; conditions: humanised variants 5 μg/ml
Excerpt: Similar findings were also reported for the Merck anti-N1 mAbs when tested on the LS-1034 cell line. As cell-cell contact is required to activate Notch signalling a spheroid-based 3-D growth model was used to test the ability of the J1 mAbs to block tumour growth. Furthermore, the 3-D model better mimics in vivo conditions including hypoxia and acidosis, allowing evaluation of the mAbs effect in a more realistic setting. Spheroids were generated from MDA-MB-231 breast cancer cells and the ability of different concentrations of the J1-65D mAb to inhibit their growth was evaluated.
Cells were harvested and resuspended in 2.5% Matrigel (BD)-complete DMEM medium. Cell suspension was plated on low-adherence 96-well plates (Corning) (200 μl/well) and spheroids, of approximately fixed cell number (5×10^3 cells for MDA-MB-231 and MDA-MB-468 cell lines; 2×10^3 for MCF7 cells) were then generated by spinning plates at 1800 rpm for 10 minutes. The following day, pictures of the spheroids were taken (day 1) and treatments were added (mAbs were used at 10 μg/ml [5 μg/ml for humanised antibodies] while DBZ was used at the concentration of 100 nM). In some experiments Paclitaxel (1 nM) and Doxorubicin (20 nM) were used in combination with J1-65D mAb treatment. Every 2 days pictures were taken and half of the medium was replaced with fresh one containing mAb/drug. At the end of the experiment, spheroids were either lysed for RNA extraction, were processed and paraffin-embedded for immunohistochemical analysis or were dissociated by pipetting and trypsinization into single cell suspensions for FACS analysis. Spheroid size was evaluated by image analysis using ImageJ software.

[4] = final antibody concentration 0.2 μg/ml
[5] = final antibody concentration 0.4 μg/ml
[6] = final antibody concentration 0.6 μg/ml
[7] = final antibody concentration 1.0 μg/ml

T1 sequence (P78504 34-1218): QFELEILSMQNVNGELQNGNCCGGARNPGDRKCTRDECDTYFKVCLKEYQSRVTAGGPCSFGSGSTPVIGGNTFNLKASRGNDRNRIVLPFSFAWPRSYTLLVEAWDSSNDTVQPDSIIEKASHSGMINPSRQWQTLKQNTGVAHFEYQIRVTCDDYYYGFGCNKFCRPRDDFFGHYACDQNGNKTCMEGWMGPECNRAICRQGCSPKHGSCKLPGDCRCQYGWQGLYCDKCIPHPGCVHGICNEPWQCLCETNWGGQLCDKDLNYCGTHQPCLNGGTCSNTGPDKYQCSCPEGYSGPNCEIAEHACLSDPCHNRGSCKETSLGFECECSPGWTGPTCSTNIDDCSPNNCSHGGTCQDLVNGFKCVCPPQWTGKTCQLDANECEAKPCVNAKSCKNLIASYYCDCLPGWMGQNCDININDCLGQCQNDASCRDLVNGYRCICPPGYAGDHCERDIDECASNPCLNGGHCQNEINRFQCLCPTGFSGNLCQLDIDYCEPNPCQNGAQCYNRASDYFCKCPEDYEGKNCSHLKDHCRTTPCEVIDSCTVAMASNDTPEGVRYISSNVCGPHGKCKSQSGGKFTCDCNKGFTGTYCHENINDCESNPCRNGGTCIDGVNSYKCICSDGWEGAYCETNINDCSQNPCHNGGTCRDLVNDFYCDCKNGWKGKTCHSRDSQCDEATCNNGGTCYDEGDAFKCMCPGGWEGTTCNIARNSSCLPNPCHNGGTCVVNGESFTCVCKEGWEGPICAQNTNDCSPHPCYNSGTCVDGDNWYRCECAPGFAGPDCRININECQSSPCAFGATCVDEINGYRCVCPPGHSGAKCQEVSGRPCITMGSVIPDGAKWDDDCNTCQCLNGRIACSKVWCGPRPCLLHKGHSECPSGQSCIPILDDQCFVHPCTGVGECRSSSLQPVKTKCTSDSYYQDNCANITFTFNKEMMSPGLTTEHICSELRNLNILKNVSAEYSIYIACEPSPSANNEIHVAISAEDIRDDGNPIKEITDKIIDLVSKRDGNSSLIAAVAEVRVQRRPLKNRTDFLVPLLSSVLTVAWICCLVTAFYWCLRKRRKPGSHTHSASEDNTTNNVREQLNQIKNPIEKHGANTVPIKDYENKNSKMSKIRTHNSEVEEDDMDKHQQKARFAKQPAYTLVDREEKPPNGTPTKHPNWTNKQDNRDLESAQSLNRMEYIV

B1: J1-65D variant 4: humanised/de-immunised J1-65D: J1-65D_VL_1 + J1-65D_VH_4 (antibody, V domains shown)
VH: QVQLVQSGAEVKKPGSSVKVSCKASGYTFTDYEMHWVRQAPGQGLEWMGAIQPGGGGTAYAQKFQGRVTITADKSTSTAYMELSSLRSEDTAVYYCTRRGYDDYPFAYWGQGTLVTVSSASTKGP
VL: DIQMTQSPSSLSASVGDRVTITCRASGNIHNYLAWYQQKPGKAPKLLIYNAKTLADDVPSRFSGSGSGTDYTLTISSLQPEDFATYYCQHFWSAPWTFGGGTKLEIKRT
[1]
  inhibition of J1-induced luciferase activity: inhibited as effectively as by the parental murine mAb
[2]; [4]
  Blocking of Notch1 binding to cell surface Jagged 1: X
[2]; [5]
  Blocking of Notch1 binding to cell surface Jagged 1: + (Complete blocking)
[2]; [6]
  Blocking of Notch1 binding to cell surface Jagged 1: + (Complete blocking)
[2]; [7]
  Blocking of Notch1 binding to cell surface Jagged 1: + (Complete blocking)
[3]
  % soluble aggregate: 0%
MDA-MB-231 spheroids
  spheroid growth inhibition: slightly reduced ability to inhibit spheroid growth

B2: J1-183D variant 15: humanised/de-immunised J1-183D: J1-183D_VL_4 + J1-183D_VH_3 (antibody, V domains shown)
VH: QVQLVQSGAELKKPGASVKVSCKVSGYAFTDYAIHWVRQAPGQGLEWMGIINTYYGDSKYAQKFQGRVTMTVDTSTSTAYMELSSLRSEDTAVYYCARGYDGFAYWGQGTLVTVSSASTKGP
VL: DIQMTQSPSSLSASVGDRVTITCRTSENIYSYLTWYQQKPGKAPKLLIYHAKILDSGVPSRFSGSGSGTDFTLTISSLQPEDFATYYCQHHYDIPWTFGGGTKLEIKRT
[2]; [4]
  Blocking of Notch1 binding to cell surface Jagged 1: X
[2]; [5]
  Blocking of Notch1 binding to cell surface Jagged 1: + (Complete blocking)
[2]; [6]
  Blocking of Notch1 binding to cell surface Jagged 1: + (Complete blocking)
[2]; [7]
  Blocking of Notch1 binding to cell surface Jagged 1: + (Complete blocking)
[3]
  % soluble aggregate: 2.21%
MDA-MB-231 spheroids
  spheroid growth inhibition: increasingly less effect

B3: J1-183D variant 16: humanised/de-immunised J1-183D: J1-183D_VL_4 + J1-183D_VH_4 (antibody, V domains shown)
VH: B2 VH with L11V, V24A, A28T
VL: B2 VL
[2]; [4]
  Blocking of Notch1 binding to cell surface Jagged 1: X
[2]; [5]
  Blocking of Notch1 binding to cell surface Jagged 1: + (Complete blocking)
[2]; [6]
  Blocking of Notch1 binding to cell surface Jagged 1: + (Complete blocking)
[2]; [7]
  Blocking of Notch1 binding to cell surface Jagged 1: + (Complete blocking)
[3]
  % soluble aggregate: 0.72%

B4: J1-183D variant 13: humanised/de-immunised J1-183D: J1-183D_VL_4 + J1-183D_VH_1 (antibody, V domains shown)
VH: B2 VH with V37I, A61N, Q65K, G66D, T74K
VL: B2 VL
[2]; [4]
  Blocking of Notch1 binding to cell surface Jagged 1: X
[2]; [5]
  Blocking of Notch1 binding to cell surface Jagged 1: + (Complete blocking)
[2]; [6]
  Blocking of Notch1 binding to cell surface Jagged 1: + (Complete blocking)
[2]; [7]
  Blocking of Notch1 binding to cell surface Jagged 1: + (Complete blocking)
[3]
  % soluble aggregate: 3.43%

B5: J1-183D variant 12: humanised/de-immunised J1-183D: J1-183D_VL_3 + J1-183D_VH_4 (antibody, V domains shown)
VH: B2 VH with L11V, V24A, A28T
VL: B2 VL with H50N
[2]; [4]
  Blocking of Notch1 binding to cell surface Jagged 1: X
[2]; [5]
  Blocking of Notch1 binding to cell surface Jagged 1: + (Complete blocking)
[2]; [6]
  Blocking of Notch1 binding to cell surface Jagged 1: + (Complete blocking)
[2]; [7]
  Blocking of Notch1 binding to cell surface Jagged 1: + (Complete blocking)
[3]
  % soluble aggregate: 0.66%
MDA-MB-231 spheroids
  spheroid growth inhibition: increasingly less effect

B6: J1-183D variant 14: humanised/de-immunised J1-183D: J1-183D_VL_4 + J1-183D_VH_2 (antibody, V domains shown)
VH: B2 VH with V37I
VL: B2 VL
[2]; [4]
  Blocking of Notch1 binding to cell surface Jagged 1: X
[2]; [5]
  Blocking of Notch1 binding to cell surface Jagged 1: + (Complete blocking)
[2]; [6]
  Blocking of Notch1 binding to cell surface Jagged 1: + (Complete blocking)
[2]; [7]
  Blocking of Notch1 binding to cell surface Jagged 1: + (Complete blocking)
[3]
  % soluble aggregate: 3.02%

B7: J1-65D chimeric: chimeric antibody with unaltered CDRs: J1-65D_VL + J1-65D_VH (antibody, V domains shown)
VL: DIQLTQSPASLSASVGETVTITCRASGNIHNYLAWYQQKQGKSPQLLVYNAKTLADDIPSRFSGSGSGTQYSLKINSLQPEDFGSYYCQHFWSAPWTFGGGTKLEIK
VH: QVQLQQPGAELVRPGASVKLSCKALGYTFTDYEMHWVKETPVHGLEWIGAIQPGGGGTAYNQKFKGKATLTADKSSSTAYMELSSLTSEDSAVYYCTRRGYDDYPFAYWGQGTLVTVSS
[2]; [4]
  Blocking of Notch1 binding to cell surface Jagged 1: X
[2]; [5]
  Blocking of Notch1 binding to cell surface Jagged 1: + (Complete blocking)
[2]; [6]
  Blocking of Notch1 binding to cell surface Jagged 1: + (Complete blocking)
[2]; [7]
  Blocking of Notch1 binding to cell surface Jagged 1: + (Complete blocking)
[3]
  % soluble aggregate: 0%
